Reference: patent US9206246B2, “Heparin/heparan sulfate-dependent inhibitors of activated protein C and uses thereof in treating hemophilic disorders” (Academia Sinica, priority 2012, dated 2015)

Key:
APC in normal plasma = assay: APTT-based APC resistance assay in normal plasma; type: biochemical; details: 200 nM DrKIn-I, 40 nM APC, 2 μg/ml heparan sulfate
Protocol: APTT-based clotting times were measured in normal, FVIII-deficient and FIX-deficient plasma containing 2 μg/ml heparan sulfate in the presence or absence of 40 nM APC and the indicated concentrations of DrKIn-I. Results shown are means±S.D. of at least three experiments.
50 μl of normal plasma, FVIII-deficient plasma or FIX-deficient plasma supplemented with 2 μg/ml heparan sulfate (four disaccharide units long) was exposed to APC (40 nM) and varying concentrations of DrKIn-I (50-200 nM). 50 μl of activated partial thromboplastin (APTT) reagent (HYPHEN Biomed) was added and incubated for 1 minute at 37° C. Finally, clotting was initiated by adding 50 μl of 20 mM CaCl2. Coagulation times, which reflect the activities of APC, were recorded on a coagulometer (Hemostasis Analyzer KC-1; Sigma Diagnostics).

plasmin = target: T1, plasmin (Homo sapiens, UniProt P00747); assay: Selectivity profile and Ki, amidolytic activity of plasmin; type: biochemical; details: for inhibition of plasmin: equimolar, plasmin 20 nM
T1 construct: thrombin, plasma kallikrein and plasmin were obtained; purchased Haematologic Technologies
T1 sequence (P00747 581-810 limits assumed): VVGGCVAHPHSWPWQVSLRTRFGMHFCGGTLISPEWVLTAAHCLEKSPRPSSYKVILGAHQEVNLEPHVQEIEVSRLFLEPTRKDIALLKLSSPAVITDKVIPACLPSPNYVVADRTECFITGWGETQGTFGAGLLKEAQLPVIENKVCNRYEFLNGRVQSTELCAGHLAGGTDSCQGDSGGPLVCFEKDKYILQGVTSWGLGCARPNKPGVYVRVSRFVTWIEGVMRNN
T1 sequence (P00747 97-580 limits assumed): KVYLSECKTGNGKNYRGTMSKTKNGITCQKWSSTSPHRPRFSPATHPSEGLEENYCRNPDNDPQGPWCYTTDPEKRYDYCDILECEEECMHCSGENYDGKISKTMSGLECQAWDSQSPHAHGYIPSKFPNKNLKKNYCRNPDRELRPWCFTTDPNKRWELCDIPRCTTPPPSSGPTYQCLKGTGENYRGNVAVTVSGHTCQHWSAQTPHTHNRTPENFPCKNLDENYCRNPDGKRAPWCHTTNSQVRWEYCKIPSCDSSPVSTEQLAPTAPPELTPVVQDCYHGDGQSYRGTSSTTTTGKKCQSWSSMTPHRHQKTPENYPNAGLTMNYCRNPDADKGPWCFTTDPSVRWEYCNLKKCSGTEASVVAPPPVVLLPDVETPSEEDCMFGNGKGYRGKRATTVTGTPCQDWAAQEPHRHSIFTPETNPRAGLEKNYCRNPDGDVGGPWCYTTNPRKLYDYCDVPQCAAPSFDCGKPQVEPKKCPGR
Protocol: In each of these experiments, the molar ratio of protease active site to inhibitor was 1:1. The final concentrations of these proteases and their respective substrates were as follows: FXIIa (20 nM)/S-2302 (0.2 mM), FXIa (2.5 nM)/S-2366 (0.2 mM), FXa (10 nM)/S-2222 (1.3 mM), FIXa (200 nM)/Spectrozyme FIXa (1.3 mM), FVIIa (100 nM)/S-2288 (1.3 mM), thrombin (5 nM)/T-1637 (0.2 mM), kallikrein (5 nM)/S-2302 (0.2 mM), plasmin (20 nM)/S-2251 (0.2 mM), tPA (80 nM)/Spectrozyme tPA (0.2 mM), uPA (100 nM)/S-2288 (1.3 mM), APC (10 nM)/Spectrozyme PCa (0.2 mM) and trypsin (5 nM)/S-2222 (0.2 mM). Results shown are means±SD of at least three experiments.
DrKIn-I, with or without heparin, was screened for its inhibitory activity against trypsin and also against serine proteases in the coagulation cascade (FXIIa, FXIa, FXa, FIXa, FVIIa, thrombin and kallikrein) and in the fibrinolytic system (plasmin, tPA and uPA). The amidolytic activities of these proteases were determined in the presence or absence of equimolar concentrations of DrKIn-I using their respective chromogenic substrates.

With DrKIn-I (CGGNDNNFETRKKCRQTCGAPRKGRPT) the clotting time (APC in normal plasma) was “almost completely restored the clotting time to that observed in the absence of APC”, the inhibition of plasmin (plasmin; in the absence of heparin) was about 20% and the inhibition of plasmin (plasmin; in the presence of heparin (0.1 U/ml)) was about 70%. The Ki (plasmin; in the presence of heparin, read-out: Ki for plasmin inhibition) was 1.56 ± 0.09 nM.
